{
  "source": "the RNAGym collection of RNA variant scans (doi:10.1093/molbev/msab373)",
  "parents": {"B1": {"name": "Azoarcus group I ribozyme (parent)", "chain": "GUGCCUUGCGCCGGGAAACCACGCAAGGGAUGGUGUCAAAUUCGGCGAAACCUAAGCGCCCGCCCGGGCGUAUGGCAACGCCGAGCCAAGCUUCGGCGCCUGCGCCGAUGAAGGUGUAGAGACUAGACGGCACCCACCUAAGGCAAACGCUAUGGUGAAGGCAUAGUCCAGGGAGUGGCGAAAGUCACACAAACCGG"}},
  "data": [
    {"variants_of": "B1", "assay": "reverse-splicing fitness (ratio to wild type); higher = more active; in vitro selection; Mg2+ level not given", "method_in_brief": "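An in vitro group I ribozyme library with randomized positions was T7-transcribed and gel-purified. In triplicate, 10 pmol RNA in EPPS pH 7.5 was reacted with 50 pmoles of a 30-nt RNA substrate for 1 h at 37 °C across several added MgCl2 levels (1–48 mM), then stopped with EDTA. Products were reverse transcribed from a substrate-complementary primer, PCR-amplified and sequenced (HiSeq 4000). Fitness is a variant's read proportion after selection over that before, normalised to wild type.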", "values": [
      {"variant": "A111G A120C C150A C169U U176C", "reverse-splicing fitness": 0.022},
      {"variant": "A111G A120C C150A C169U U176A", "reverse-splicing fitness": 0.0231},
      {"variant": "A111G A120C C150A C169U U176G", "reverse-splicing fitness": 0.00616},
      {"variant": "A111G A120C A145U C150A C169A U176G", "reverse-splicing fitness": 0.00401},
      {"variant": "A111G A120C A145U C150A C169A U176C", "reverse-splicing fitness": 0.00676},
      {"variant": "A111G A120C A145U C150A C169A U176A", "reverse-splicing fitness": 0.0107},
      {"variant": "A111G A120C A145G C169U U176G", "reverse-splicing fitness": 0.00613},
      {"variant": "A111G A120C A145G C169U U176A", "reverse-splicing fitness": 0.064},
      {"variant": "A111G A120C A145G C169U U176C", "reverse-splicing fitness": 0.0832},
      {"variant": "A111G", "reverse-splicing fitness": 1.01},
      {"variant": "A111G A120C A145C C150G", "reverse-splicing fitness": 0.136},
      {"variant": "A111G A120C A145C C150U", "reverse-splicing fitness": 0.298},
      {"variant": "A111G A120C A145C C150A", "reverse-splicing fitness": 0.0611},
      {"variant": "A111G A120C A145C C150U C169G U176A", "reverse-splicing fitness": 0.0186},
      {"variant": "A111G A120C A145C C150U C169G U176G", "reverse-splicing fitness": 0.0049},
      {"variant": "A111G A120C A145C C150U C169G U176C", "reverse-splicing fitness": 0.00855},
      {"variant": "A111G A120C C150G C169G U176G", "reverse-splicing fitness": 0.00385},
      {"variant": "A111G A120C C150G C169G U176A", "reverse-splicing fitness": 0.00631},
      {"variant": "A111G A120C C150G C169G U176C", "reverse-splicing fitness": 0.00358},
      {"variant": "A111C C169A", "reverse-splicing fitness": 0.032},
      {"variant": "A111C C169U", "reverse-splicing fitness": 0.128},
      {"variant": "A111C C169G", "reverse-splicing fitness": 0.0716},
      {"variant": "A111C C150U C169A U176C", "reverse-splicing fitness": 0.0136},
      {"variant": "A111C C150U C169A U176A", "reverse-splicing fitness": 0.0164},
      {"variant": "A111C C150U C169A U176G", "reverse-splicing fitness": 0.00796},
      {"variant": "A111G A120C A145C C150A U176C", "reverse-splicing fitness": 0.0404},
      {"variant": "A111G A120C A145C C150A U176A", "reverse-splicing fitness": 0.0376},
      {"variant": "A111G A120C A145C C150A U176G", "reverse-splicing fitness": 0.0123},
      {"variant": "A111G A120C A145U C169A", "reverse-splicing fitness": 0.0133},
      {"variant": "A111G A120C A145U C169G", "reverse-splicing fitness": 0.0128},
      {"variant": "A111G A120C A145U C169U", "reverse-splicing fitness": 0.262},
      {"variant": "A111G A120G A145C C150G C169U U176C", "reverse-splicing fitness": 0.0162},
      {"variant": "A111G A120G A145C C150G C169U U176G", "reverse-splicing fitness": 0.00502},
      {"variant": "A111G A120G A145C C150G C169U U176A", "reverse-splicing fitness": 0.0176},
      {"variant": "A111G A120C A145G C150U C169U U176A", "reverse-splicing fitness": 0.0456},
      {"variant": "A111G A120C A145G C150U C169U U176G", "reverse-splicing fitness": 0.00537},
      {"variant": "A111G A120C A145G C150U C169U U176C", "reverse-splicing fitness": 0.0607},
      {"variant": "A111G A120C A145C C150A C169U", "reverse-splicing fitness": 0.0193},
      {"variant": "A111G A120C A145C C150A C169A", "reverse-splicing fitness": 0.00705},
      {"variant": "A111G A120C A145C C150A C169G", "reverse-splicing fitness": 0.00815},
      {"variant": "A111G A120C C150U C169A U176A", "reverse-splicing fitness": 0.0182},
      {"variant": "A111G A120C C150U C169A U176G", "reverse-splicing fitness": 0.00384},
      {"variant": "A111G A120C C150U C169A U176C", "reverse-splicing fitness": 0.012},
      {"variant": "A111C C169U U176A", "reverse-splicing fitness": 0.0264},
      {"variant": "A111C C169U U176C", "reverse-splicing fitness": 0.0304},
      {"variant": "A111C C169U U176G", "reverse-splicing fitness": 0.00757},
      {"variant": "A111G A120C A145G C150G C169U U176C", "reverse-splicing fitness": 0.0116},
      {"variant": "A111G A120C A145G C150G C169U U176G", "reverse-splicing fitness": 0.00458},
      {"variant": "A111G A120C A145G C150G C169U U176A", "reverse-splicing fitness": 0.00706},
      {"variant": "A111G A120C A145U C150U C169U U176A", "reverse-splicing fitness": 0.0423},
      {"variant": "A111G A120C A145U C150U C169U U176C", "reverse-splicing fitness": 0.051},
      {"variant": "A111G A120C A145U C150U C169U U176G", "reverse-splicing fitness": 0.00606},
      {"variant": "A111G A120C A145C C150U C169A U176C", "reverse-splicing fitness": 0.00426},
      {"variant": "A111G A120C A145C C150U C169A U176G", "reverse-splicing fitness": 0.00419},
      {"variant": "A111G A120C A145C C150U C169A U176A", "reverse-splicing fitness": 0.00824},
      {"variant": "A111C U176G", "reverse-splicing fitness": 0.202},
      {"variant": "A111C U176C", "reverse-splicing fitness": 0.38},
      {"variant": "A111C U176A", "reverse-splicing fitness": 0.368},
      {"variant": "A111G A120C A145C U176A", "reverse-splicing fitness": 0.42},
      {"variant": "A111G A120C A145C U176G", "reverse-splicing fitness": 0.129},
      {"variant": "A111G A120C A145C U176C", "reverse-splicing fitness": 0.419},
      {"variant": "A111G A120C A145G C150U U176C", "reverse-splicing fitness": 0.316},
      {"variant": "A111G A120C A145G C150U U176A", "reverse-splicing fitness": 0.287},
      {"variant": "A111G A120C A145G C150U U176G", "reverse-splicing fitness": 0.0682},
      {"variant": "A111G A120C A145G C150A C169U U176C", "reverse-splicing fitness": 0.0231},
      {"variant": "A111G A120C A145G C150A C169U U176G", "reverse-splicing fitness": 0.00549},
      {"variant": "A111G A120C A145G C150A C169U U176A", "reverse-splicing fitness": 0.0243},
      {"variant": "A111G A120C A145C C150U C169U U176C", "reverse-splicing fitness": 0.0214},
      {"variant": "A111G A120C A145C C150U C169U U176G", "reverse-splicing fitness": 0.00415},
      {"variant": "A111G A120C A145C C150U C169U U176A", "reverse-splicing fitness": 0.0273},
      {"variant": "A111G A120C A145C C150A C169G U176G", "reverse-splicing fitness": 0.00452},
      {"variant": "A111G A120C A145C C150A C169G U176A", "reverse-splicing fitness": 0.0185},
      {"variant": "A111G A120C A145C C150A C169G U176C", "reverse-splicing fitness": 0.00982},
      {"variant": "A111C C150G C169U", "reverse-splicing fitness": 0.0134},
      {"variant": "A111G A120G A145C C150G C169A U176G", "reverse-splicing fitness": 0.00453},
      {"variant": "A111G A120G A145C C150G C169A U176A", "reverse-splicing fitness": 0.00837},
      {"variant": "A111G A120G A145C C150G C169A U176C", "reverse-splicing fitness": 0.00969},
      {"variant": "A111G A120C A145U C150A C169U U176G", "reverse-splicing fitness": 0.00505},
      {"variant": "A111G A120C A145U C150A C169U U176A", "reverse-splicing fitness": 0.0204},
      {"variant": "A111G A120C A145U C150A C169U U176C", "reverse-splicing fitness": 0.0177},
      {"variant": "A111C C150U C169U U176C", "reverse-splicing fitness": 0.0245},
      {"variant": "A111C C150U C169U U176A", "reverse-splicing fitness": 0.0241},
      {"variant": "A111C C150U C169U U176G", "reverse-splicing fitness": 0.00793}
    ]}
  ]
}
